Measurements from the DeepSol protein solubility set.

experiment: soluble on expression in E. coli; label from the status in PepcDB or PDB records

Soluble on expression in E. coli, not soluble:
MAPSRRERERERRREQIIRAAEKAFFARGYDRVTMDEIAEEAEVNKALLYYYFKNKESLFFAVNLYGVRILHSMYRRCLELDTDGYGKVRAMVEALYSFSKEHPDYFRIYCYSGTERFELSESEDAREIVDLRTGMWRLMVEAIMEGMNDGSIRSDLDPVELSIYIHTLAINALNLDFTSRMVLEARNISRDRFWEDLEVFLESALRP
MGIAEWRYQDVPEKLWPIQPLRDFWGINKRTEKKLNKRGIFTIGDLAKYPYHYLKRDFGVLGIDMHLHANGIDQSKLEHHHHHH
MARVEGELFKIARASLEAEPIAWRYRYVKKGVMDSQGELWVGDWKYVPKKEDCNDRPNYEIQALFTAPPVPVTSEELVKAVHFYEQLKRENPPASGNQINGLTMSVKRPAN
MGSDKIHHHHHHMFGYVKINKMDLTFREYDYYKAYYCGLCKYLKRNHGEISRFSLNYDITFLIVLLTAVYNPESISTEEVCIVNPFKKKKVITNDITEYAASMNILLTYYKLEDNLMDDKRIKDKLAYYIYKNKLKLAYEKYPEKAEYIKQQLNELNKLEKDKNINIDEVSSIFGNIMGEVFVYKKDENERNLRMIGFNIGKYIYLLDAYEDLDEDFKKGRYNPFIEYIDKNDELKEKVKKIIVTSLGFLARGIDNLNLNKNVGIIENIIYSGVYLRYINILESRGGKNVQ
MEKLDGVANTLYVPLYGRIYVSKKFPEYFYDEMALKIEEKFTSGISKGSFEYTNMAYGARYYNMDKMIIKFIEEHKISNIILLGIGLETAYDRITQKCGLGEVNYYGIDLPEVIEIRKKYFGERKQETLIAGDMFEMEWKEQIDTSIPTLLIVSGVFQYFFEDKIIEFIKNLKKEFPYGELVFDTARKKTGLRFANWYIRRTGNLEALMHFYIEDSVDFSKKTDTILVEELTFFKDARELLRKKLNFITKLFMKIADSKRQALIIHLKWLEHHHHHH
MDFKAKLLAEMAKKRKAVSGMEVKEGNAKFVKGADLEMKRNQEYERKQQEIASKKRKVDDEILQESSSRTKPAPVENESEIDEKTPMSEIQTRLRQRNHPIMLFGETDIDVRKRLHQLELAQPDLNEGWENELQTAMKVIGKEMDKAVVEGTADSATRHDIALPQGYEEDNWKNIEHNSTLLSVDDDLKRDCDIILSICRYILARWAKDLNDRPLDVKKTAQGMHEAAHHKQTMMHLKSLMTSMERYNCNNDIRHHLAKICRLLVIDRNYLEANNAYMEMAIGNAPWPVGVTRSGIHQRPGSAKSYVSNIAHVLNDETQRKYIQAFKRLMTKMQEYFPTDPSKSVEFVKKAV
MQLNATQLQAALPWDSLIEALKDIFVREVCSPVRHHHSINVPDKLSATLLLMPAWLEGEYLGIKQVNVFPSNNVSNIPALSSHYMLSCGKTGQPLMQLDGNELTARRTAAASALASAYLSREDARVMLMVGSGRMARRLITAHMSVRPIKIVQVWDRKEEKAQTLVTELKESGINAEVCKPDNLQAAAQQADIISCATMATSPLILGKWLKPGAHLDLVGSFTPTMRETDNAAMQLCSVFVDTRAGALSETGDLIIPIRDGAITQEKIIAEFTQLCSGEHRGRADLANPDNSITLFKSVGDSREDLAAAILAFEQCNQR
MQVELIIKNLKVYNSYFKKFIKSDVLINEGKFLHIGKGYEDRLWSENIIDGEDKYIIPGLIDIHMHIESSMTIPREFSKAAIKHGVTTVVADPHEIANVFGVRGIEEFIKFKGNLDIFYGILEHHHHHH
MGSDKIHHHHHHMERVHVDIRQLQFFAEIVRYGSFTKAAERLHVAQPAVSMAMKKLEEELDLILFNRQERRISLTAEGEIFLRHAEKILDEVKSAETEMEELRGLAKGEVRVGIPPMMSAYFFPEIIRDFSNSYPDLHLTVSGEGASKIQKMIIDGELDMGVVAGASFPETLEVRRFLREEVIVCVPRSHPLASRGSLTLHEFARHPLIFYREGYYLRELILDVLRGAGLSPTIRFETNLYTLVKSLVQKGMGISVFLRMVVAEDDDLTAISLDPPLFLDLLIAWKKHGYLSRANRAFADYLLEKGSSAAL
MSLNIQQQVNEMFSGMINVTSPGAYKTATRGVITGGSVVLRNRISTANLISITPPSAKGGCGGINLYSGSFSFINGEEFVALMRNVASNAAGIVSGFAFELALDAMDAQTGGVIRNLANKIQALNQMFSNSCQLASGLVTNAKKAYEESTDFKSAMTAFGSNVSSDFFTAKSTKEDSPANRIAASGKAVQCENTGNVLWCAMMKSGLQSQILFGSDENAEFIMSMVGSYNVSLTNDASGGKNFAAHPMPKLITGEGLKILVEGSTNLDVKVYQCDQDDPDCSEPNIRTLTSFKGLETRILEDLQNNGILERFANGTATAADGNRIAYLASSRVGVNLMKITQKAGAQSGYDYLNQFAKKIAADASMSLIYQLLGHTEKGLTSLNMADAGKVIEDLRATKGELMDEYRSYIEDAMQGKDADGQAEKMLQMAPVFDSGTLPQGTINDNAGAEGHHHHHH
SLRRWDQGLEKPRLDYSEFFTEDVGQLPGLTIWQIENFVPVLVEEAFHGKFYEADCYIVLKTFLDDSGSLNWEIYYWIGGEATLDKKACSAIHAVNLRNYLGAECRTVREEMGDESEEFLQVFDNDISYIEGGTASGFYTVEDTHYVTRMYRVYGKKNIKLEPVPLKGSSLDPRFVFLLDQGLDIYVWRGAQATLSNTTKARLFAEKINKNERKGKAEITLLVQGQEPPGFWDVLGGEPSEIKNHVPDDFWPPQPKLYKVGLGLGYLELPQINYKLSVEHKKRPKVELMPGMRLLQSLLDTRCVYILDCWSDVFIWLGRKSPRLVRAAALKLGQELCGMLHRPRHTVVSRSLEGTEAQVFKAKFKNWDDVLTVDYTRNAEAVLQGQGLSGKVKRDTEKTDQMKADLTALFLPRQPPMPLAEAEQLMEEWNEDLDGMEGFVLEGRKFTRLPEEEFGHFYTQDCYVFLCRYWVPVEYEEEEKTEDKEGKASAEAREGEEAAAEAEEKQPEEDFQCIVYFWQGREASNMGWLTFTFSLQKKFESLFPGKLEVVRMTQQQENPKFLSHFKRKFIIHRGKRKVTQGTLQPTLYQIRTNGSALCTRCIQINTDSSLLNSEFCFILKVPFESEDNQGIVYAWVGRASDPDEAKLAEDILNTMFDASYSKQVINEGEEPENFFWVGIGAQKPYDDDAEYMKHTRLFRCSNEKGYFAVTEKCSDFCQDDLADDDIMLLDNGQEVYMWVGTQTSQVEIKLSLKACQVYIQHTRSKEHERPRRLRLVRKGNEQRAFTRCFHAWSTFRQAPA
MKFRSTALVKGFRQSAPYVNAHRDKTVVIMLGGEAIADPNFANIVNDIALLNSLGLRIVIVYGTRPQMRSLLKQTEHHAPFHKGIRITDEQTLELVKQIAGQLQLDITARLSMSLNNTPMAGAQINVISGNFVIAQPLGVDDGIDYCHSGRVRRIDTQGINRMLDQQSIVLLGPVASSVTGECFNLLSEDVATQLAIRLNADKLIGFCSEQGVLNEKGQILAELFPSEAEEILQRLEKELTPENGKLTGTMRFLKGAISACKAGVPRSHLISYKEDGALIQELFSFDGIGTQVVMASSEQVRDAEIDDIGGILDLIRPLEEEGILVRRSREQLEQEIAQFTIIEKDGLVIACAALYPFPEEGMAEMGCVAVHPDYRDGDRGVTLLNRLRSKAKQFKLSQLFVLTTRSLHWFREQGFIEVDVSHLPIKKQKLYNFQRKSKILVLKGL
MTNRYVVIFTVGPVQSFIASARKTEDFWSGSYILSHLVREAIKRFYQFDANCEMIYPLVTEKELRSPSQRDVHIASIPNRLTVIMEGTEEEVCGWLREAEQDVCNVFLDFCFQAVRRVFPHLTDHEQELLERMVEQQVRSFLEIYWVAEPYEPSMSFREVRERAERRLGALKNEKHYIPVSQQGLVCSVCKEREALRLEEIGEFDHYGEIKKKTMSLWQRRAVKFQGTGGDEEDDRRAGRIKDNEFLCGICLGKRAARDYFADLFGTSFPSFPSVLDIGQGDYYAVLLMDGDDMGKWFSGERKDEYSRTSQKLARFAKETVPWIVQERCKGKLVYAGGDDVLAFVPVETALKAAEMLRLAFADERQGLGSGATASFGVVIAHKKAPLQHVLNAARALEQKAKRYYNDKTAQRKDALALAVHTRSGEISEAVLPWIVGEKMVSKLLEEWLGLLKTSLSPNFIFHFASAFAPLLHEKDCPKWENRDMLATELRRLLRRSVKEGSCLDAQDIARYTSTLLVLHEAVRSSYDFLHLLKMLTFFKRSKGRG
MGSDKIHHHHHHYAVQPKDDKKENEALQTSTEEHLPLLTINGTNASSSFIVNSEALLGKEITITAPNGFTVTPTVIAANSGKQKVKVTLNSTKRLTEGKIILRSGDVRSYLKVKGYGTALPVKDIAASPAYKKGNDKEFTKAFTPNSKGYTIEFKIKTDDSEKSFYPYFVNEKGYGFKAYITSNEIGLFNAYKKEITNPATNGKAGGKGKFYNNDGQAHIYRFAITPDNRAFIYRDGIPVDSVRIIDYAPQPNFAEKVGKPVENLLKNPNFEGEFDINPETKLVSRVEGWDVVISDRWNSEQQILPEEIDNNQDLDNHVFEIRPYKWAAGWSDGILMQVVDVVPNENYTLSALLKGGIAKKEGKLTGKMIIEEVQDPEKKVITEIASDNWETYSMDYTTSAECNQIRVSFTVGRGGWGNDIGAVRVDNAKLTGTSRTYSPKFGFIDNTADVEYFTIDESGAYAPAQPEITINIED
MGSDKIHHHHHHMKVAYLSSAYLAPVEYYSKLLNYDKIFIEQHDHYMKQTYRNRCTIAGPEGELALSIPIVKPEEPKCPMKDIRISDHGNWRHLHWNAIESAYNSTPFFEYYKDDFRPFYEKKYEFLTDFNEELCRLVCELIDIQPAIERTKEYKTDFAPNEIDFREAIHPKKDFHRTDPEFIPQPYYQVFEARYGFLPNLSIIDLLFNMGPESLLILQKTCADSQ
MVSSLLMSFAPATVRVYATSTKGGSGGPKEEKNPIDFVLGFMTKQDQFYETNPLLKKVDEKEGTTTGGRGTVRGGKNSAPTPVPKKSEGGFGGLGSLFKK
MFKHKKNEARNYSKMRESRYEYGTILKAHAAFVEIVTRPAPHRDNLPFNMSTLSVLIETSSCSWGMLASAHGDRTIGIILRAIVSFCNAHLGQSANNQLLVFAYGRNVDNKMIYSSTRCEDRNASFLVVKRLRELLSSDALTNDATIGAPLGPALAHAFCHMKKDSRVVTADPCDDSLGPQTTSEQSETASEKATNRAVVISITPIMGSEHGSLMNLFFSAAKQSICVDVVSMGDDFTGGILQQAADITGGSFLHAKKPQTLLKILMTNMLTDPTHRAVFSKLSHNSVDYRASCACHHQLVSSGWVCSICLSVLCQYTPICKVCKAAFTIANLPIKPNRKRAIRN

Soluble on expression in E. coli, soluble:
MSLSTIKDIARVAGVSVATVSRVVNNDPKVKEKTKLKVTKVMLDLNYTPNANARALVTQKNTTIGVIIPSLTDPFFASLANGVEQVARQQSMQLLLSTGLVSAESERQAINLLRERRCDVMVVHSKKLTDDELIALSEQIPGLVLIDRHIEQISHRCVWLDNLEGGKIAARHLLALNHQKFASISSKYQIEDPGLRLEGFTRELTGAGFAIDKELIEYGEPNLQGGEIATQHLLSSGKTFSALFVYNDAMAIGAISTLEDNGYRVPQDISVIGFDDVLLSRYSRPKLSTLNYPIEEMAQQAANLAIELTKERKAAKDEYKVESKTHKYVPRLVKRESTSLEGHHHHHH
MKISLGPLLYCWEKQQVIDFYQQVANSQIPLVYLGEAVCSRRRELKWGDYLELAKMLKSAGKDVVLSTLALIEAPSEYTELKRQVDNGEFMIEANDMAAVYLAKEHKQPFVCGASINNYNRASLDILQRLGMQRFVMPVELSKTWLSQVVDKKPSFEVEVLGHGYLPLAHSARCFTARHSQLAKDSCETVCRQYSKGLLAQTQEAQPLLRLNGIQTQSASCVDLRSEISAMVKIGVDVFRVSPSSLACIAKADALVEALNSGAMDAQYPLSDEHCNGYWFGEAGLKSLS
GMEPSAKHLQLQTLLSERHAYLMEGNREAMHQLLSSDFSFIDGQGRQFDAETYLDHYVDPDQIQWSNQISESMVVEVFETTALVQEIVEDHFSYGRSMYIGRFRSVSLYHWANEGWKWHFHQLTPLDPS
